Measurements published in patent US11530263B2, “IL-18 binding protein (IL-18BP) in inflammatory diseases” (AB2 BIO SA, priority 2013, dated 2022).

Key:
[1] = molecular target: T1, human interleukin-18 (Homo sapiens, UniProt Q14116); test: Luminex screening: monoclonal antibodies binding on IL-18; settings: IL-18 on Luminex beads
T1 sequence (Q14116 37-193): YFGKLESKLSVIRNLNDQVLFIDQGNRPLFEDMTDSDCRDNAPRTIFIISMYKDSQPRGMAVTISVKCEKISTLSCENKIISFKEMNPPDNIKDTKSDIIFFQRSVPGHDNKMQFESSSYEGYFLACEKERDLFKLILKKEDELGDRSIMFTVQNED
Excerpt: (§1) Mice were vaccinated aginst human interleukin-18 using a technology allowing immunization with properly folded proteins. Prior to immunization, genetically modified mice were selected for major histocompatibility complexes supposedly sensitive to IL-18 surface area epitopes binding IL-18BP. Following immunization, B cells were isolated from spleen and hybridized following standard hybridoma technology. Hybridoma were sorted onto microplates and then tested for expression of monoclonal anti-IL-18 antibodies targeting IL-18 epitopes included in IL-18BP binding site. The screening was performed in 3 sequential and selective steps: • First step. […] Potential antibodies targeting IL-18 on IL-18BP binding site were rescreened in competition with IL-18BP. For this, monoclonal antibodies were bound to Luminex beads carrying IL-18. The complex was then exposed to biotinylated IL-18BP in order to identify interference to previously identified anti-IL-18 antibodies (see Table 1, Column #2). […] A third screening program was undertaken with Luminex beads linked to IL-18BP and then complexed to interleukin-18, assuring the presentation of properly folded recombinant IL-18 to positive antibody candidates.

[2] = molecular target: T2, IL-18 previously complexed to monoclonal antibody (Homo sapiens, UniProt Q14116); test: Luminex screening: biotinylated IL-18BP binding on IL-18 previously complexed to monoclonal antibody; settings: Column #2
T2 sequence (Q14116 37-193): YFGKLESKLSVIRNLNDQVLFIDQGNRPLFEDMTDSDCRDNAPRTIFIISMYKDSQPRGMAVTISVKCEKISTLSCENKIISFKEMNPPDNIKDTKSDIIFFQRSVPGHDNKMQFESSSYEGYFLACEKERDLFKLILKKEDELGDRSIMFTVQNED
Excerpt: as §1

[3] = molecular target: T3, IL-18 previously complexed to IL-18BP (Homo sapiens, UniProt Q14116); test: Luminex screening: monoclonal antibody binding on IL-18 previously complexed to IL-18BP; settings: after third screening step, mRNA sequencing and clone dilution
T3 sequence (Q14116 37-193): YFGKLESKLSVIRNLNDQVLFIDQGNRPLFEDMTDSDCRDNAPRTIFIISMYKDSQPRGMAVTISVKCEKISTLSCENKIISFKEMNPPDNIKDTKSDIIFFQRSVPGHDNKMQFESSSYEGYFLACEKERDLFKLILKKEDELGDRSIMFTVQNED
T3 sequence (O95998 31-194 partner): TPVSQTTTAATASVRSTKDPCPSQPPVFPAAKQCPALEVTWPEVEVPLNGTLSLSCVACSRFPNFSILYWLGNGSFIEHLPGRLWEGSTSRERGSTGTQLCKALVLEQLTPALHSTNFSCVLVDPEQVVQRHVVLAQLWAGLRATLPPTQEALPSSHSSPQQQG
Excerpt: as §1

| Molecule | Monoclonal antibodies binding on IL-18, Fluorescence intensity [1] | IL-18BP binding on IL-18 previously complexed to monoclonal antibody, Fluorescence intensity [2] | Binding to IL-18 on the IL-18BP binding site [3] |
| --- | --- | --- | --- |
| 132H4: monoclonal anti-IL-18 antibody; VH SEQ ID NO: 23, VK SEQ ID NO: 24 (antibody, V domains shown, Antibody 132H4 VH sequence; Antibody 132H4 VK sequence) VH: EVKLVESGGGLVKPGGSLKLSCAASGFTFSNYAMSWVRQNPAKRLEWVATISSGGANIYYPDSVKGRFIISRDNARNTLYLQMSSLRSEDTAMYYCARGDYFNHFWFAYWGQGTLVTVSA VL: DVLMTQTPLSLPVSLGDQASISCRSSQSIVHSNGNTYLEWYLQKPGQSPKFLIYKVSNRFSGVPDRFSGSGSGTDFTLKINRVEAEDLGIYYCFQGSHVPWTFGGGTKLEIK | 23 839 | 1 488 | confirmed to bind to IL-18 on the IL-18BP binding site |
| 107C6: monoclonal anti-IL-18 antibody; VH SEQ ID NO: 9, VK SEQ ID NO: 10 (antibody, V domains shown, Antibody 107C6 VH sequence; Antibody 107C6 VK sequence) VH: QIQLVQSGPELKKPGETVKLSCRASGYTFTNYGMNWVKQAPGKGLKWMGWINTYSGVPTYADDFKGQFAFSLETSAATAFLQINNLKDEDTATYFCAREGYSTTRSMDYWGQGTSVTVSS VL: DIVMSQSPSSLAVSAGEKVTMSCKSSQSLLDSRTRKNYLVWYQQKPGQSPKLLIYWASTRGSGVPDRFTGSGSGTDFTLTISSVQAEDLAVYYCKQSYNLRTFGGGTKLEIK | 26 250 | 1 389 | confirmed to bind to IL-18 on the IL-18BP binding site |
| 108F8: monoclonal anti-IL-18 antibody; VH SEQ ID NO: 11, VK SEQ ID NO: 12 (antibody, V domains shown, Antibody 108F8 VH sequence; Antibody 108F8 VK sequence) VH: QIQLVQSGPDSKKPGETVKLSCRASGYTFTNYGMNWVKQAPGKGLKWMGWINTYSGVPTYADDFKGQFAFSLETSAATAFLQINNLKDEDTATYFCAREGYSTTRSMDYWGQGTSVTVSS VL: DIVMSQSPSSLAVSAGEKVTMSCKSSQSLLDSRTRKNYLVWYQQKPGQSPKLLIYWASTRGSGVPDRFTGSGSGTDFTLTISSVQAEDLAVYYCKQSYNLRTFGGGTKLEIK | 25 126 | 1 292 | confirmed to bind to IL-18 on the IL-18BP binding site |
| 109A6: monoclonal anti-IL-18 antibody; VH SEQ ID NO: 13, VK SEQ ID NO: 14 (antibody, V domains shown, Antibody 109A6 VH sequence; Antibody 109A6 VK sequence) VH: EVQLQQSGAELVKPGASVKLSCTASGFKIKDTYIHWVIQRPAQGLEWIGRIDPANGNTIYGSKFQGKATLTADTSSNTAYIHLSSLTSGDSAVYYCAGYVWFAYWGQGTLVTVSA VL: DVVMTQVPLSLPVSLGDQASISCRSSQRLVHSNGNTYLHWFLQKPGQSPKLLIYTVSNRFSGVPDRFSGSGSGTDFTLKISRVEAEDLGVYFCSQSTLVPWTFGGGTKLEIK | 25 848 | 913 | confirmed to bind to IL-18 on the IL-18BP binding site |
| 131B4: monoclonal anti-IL-18 antibody; VH SEQ ID NO: 18, VK SEQ ID NO: 19 (antibody, V domains shown, Antibody 131B4 VH sequence; Antibody 131B4 VK sequence) VH: EVQVQQSGAELVKPGASVKLSCTASGFKIKDTYIHWLKQRPEQGLEWIGRIDPANGNTIYGSKFQGKATITADTSSNTAYIQLSSLTSGDTAVYFCAGYVWFAYWGQGTLVTVSA VL: DAVLTQTPLSLPVSLGDQASISCTSSQSLVHSNGNTYLHWYLQKPGQSPKLLIYKVSDRFSGVPDRFSGSGSGTDFTLMITRVEAEDLGVYFCSQSSLVPWTFGGGTKLEVK | 24 838 | 1 656 | confirmed to bind to IL-18 on the IL-18BP binding site |
